Measurements reported in the supplement of paper PMC7877785.
± gives the uncertainty stated by the source.

Assay: self-splicing fitness, log relative to wild type (ln ratio); higher = more splicing; Tetrahymena group I intron in knt gene, E. coli kanamycin selection, DiMSum; sequences stand for … in CUCUCU…GGAGGGAAAAGUUAUCAGGCAUGCACCUGGUAGCUAGUCUUUAAACCAAUAGAUUGCAUCGGUUUAAAAGGCAAGACCGUCAAAUUGCGGGAAAGGGGUCAACAGCCGUUCAGUACCAAGUCUCAGGGGAAACUUUGAGAUGGCCUUGCAAAGGGUAUGGUAAUAAGCUGACGGACAUGGUCCUAACCACGCAGCCAAGUCCUAAGUCAACAGAUCUUCUGUUGAUAUGGAUGCAGUUCACAGACUAAAUGUCGGUCGGGGAAGAUGUAUUCUUCUCAUAAGAUAUAGUCGGACCUCUCCUUAAUGGGAGCUAGCGGAUGAAGUGAUGCAACACUGGAGCCGCUGGGAACUAAUUUGUAUGCGAAAGUAUAUUGAUUAGUUUUGGAGUACUCGUGGUCG
Procedure, shortened: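 Six replicate transformations of E. coli BL21(DE3) with a pET-22b(+) library were grown overnight at 37°C or 30°C. The library randomised all eight P1ex-region intron nucleotides, the intron lying in the knt kanamycin-resistance gene, and plates were LB agar with or without 25 μg/mL kanamycin plus 100 μg/mL carbenicillin, 50 μM IPTG and 0.2% rhamnose. Pooled colonies were amplicon-sequenced on an Illumina HiSeq 2500, and fitness is the DiMSum error-weighted combination of wild-type-normalised replicate fold changes, kanamycin versus none.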

Sequence	self-splicing fitness (ln) (30 °C)	self-splicing fitness (ln) (37 °C)
GGCCAGCAAUAUUACGUGGG	-4.31 ± 0.21	-3.32 ± 0.26
GGCCAGCAAUAUUACGUUGG	-3.91 ± 0.25	-3.17 ± 0.25
GGCCAGCAAUAUUACGUUUA	-2.69 ± 0.19	-1.87 ± 0.16
GGCGAGCAAUAUUACGAAUC	-1.03 ± 0.051	-0.145 ± 0.067
GGCGAGCAAUAUUACGAUAC	-2.02 ± 0.37	-0.796 ± 0.35
GGCGAGCAAUAUUACGAUCC	-0.772 ± 0.092	-0.128 ± 0.12
GGCGAGCAAUAUUACGAUGA	-2.08 ± 0.17	-2.93 ± 0.33
GGCGAGCAAUAUUACGCACA	-0.586 ± 0.082	-0.225 ± 0.12
GGCGAGCAAUAUUACGCAUC	-2.15 ± 0.15	-1.05 ± 0.14
GGCGAGCAAUAUUACGCAUU	-1.13 ± 0.11	-0.998 ± 0.14
GGCGAGCAAUAUUACGCCGG	-3.4 ± 0.35	-0.739 ± 0.33
GGCGAGCAAUAUUACGCCUG	-1.97 ± 0.43	–
GGCGAGCAAUAUUACGCGUA	-1.09 ± 0.17	-0.484 ± 0.15
GGCGAGCAAUAUUACGGAUA	–	-2.08 ± 0.37
GGCGAGCAAUAUUACGGCAC	-1.36 ± 0.13	-0.093 ± 0.14
GGCGAGCAAUAUUACGGCGC	-2.51 ± 0.29	-2.52 ± 0.37
GGCGAGCAAUAUUACGGGAG	-3.99 ± 0.34	-1.33 ± 0.23
GGCGAGCAAUAUUACGGGCA	-0.695 ± 0.15	-0.194 ± 0.15
GGCGAGCAAUAUUACGGGUG	-2.31 ± 0.12	-1.96 ± 0.14
GGCGAGCAAUAUUACGGUGU	-2.02 ± 0.25	-1.55 ± 0.17
GGCGAGCAAUAUUACGUCGG	-3.78 ± 0.33	-2.13 ± 0.28
GGCGAGCAAUAUUACGUGCU	-3.19 ± 0.34	–
GGCGAGCAAUAUUACGUGUU	-2.5 ± 0.12	-1.39 ± 0.14
GGCUAGCAAUAUUACGAACG	-0.636 ± 0.066	-0.168 ± 0.094
GGCUAGCAAUAUUACGAAGU	-2.13 ± 0.26	-1.56 ± 0.44
GGCUAGCAAUAUUACGAAUC	0.199 ± 0.18	0.239 ± 0.19

Sequence	self-splicing fitness (ln) (30 °C)	self-splicing fitness (ln) (37 °C)
GGCUAGCAAUAUUACGACAA	-0.713 ± 0.29	-0.198 ± 0.33
GGCUAGCAAUAUUACGACGA	-1.31 ± 0.15	-1.08 ± 0.17
GGCUAGCAAUAUUACGACUA	-0.758 ± 0.091	-0.454 ± 0.089
GGCUAGCAAUAUUACGACUU	-0.0915 ± 0.084	-0.0421 ± 0.11
GGCUAGCAAUAUUACGAGCU	-2.9 ± 0.47	-1.65 ± 0.31
GGCUAGCAAUAUUACGAGUU	-1.95 ± 0.11	-0.414 ± 0.11
GGCUAGCAAUAUUACGAUAC	-1.71 ± 0.16	-0.0528 ± 0.14
GGCUAGCAAUAUUACGCAAC	-1.61 ± 0.11	-0.72 ± 0.12
GGCUAGCAAUAUUACGCACA	-0.263 ± 0.12	0.1 ± 0.16
GGCUAGCAAUAUUACGCCGG	-2.34 ± 0.21	-2.27 ± 0.35
GGCUAGCAAUAUUACGCGUC	-2.06 ± 0.24	0.0137 ± 0.14
GGCUAGCAAUAUUACGCUAG	-2.5 ± 0.3	-1.45 ± 0.34
GGCUAGCAAUAUUACGGACG	0.655 ± 0.093	0.211 ± 0.11
GGCUAGCAAUAUUACGGGUC	-2.91 ± 0.28	-2.26 ± 0.24
GGCUAGCAAUAUUACGGUCU	-2.92 ± 0.44	-0.649 ± 0.21
GGCUAGCAAUAUUACGGUGC	-1.49 ± 0.19	-0.767 ± 0.2
GGCUAGCAAUAUUACGUCGC	-1.5 ± 0.28	-0.438 ± 0.22
GGCUAGCAAUAUUACGUGCG	-0.139 ± 0.099	0.371 ± 0.15
GGCUAGCAAUAUUACGUUCG	-0.933 ± 0.097	-0.427 ± 0.12
GGGAAGCAAUAUUACGAAAG	–	-2.48 ± 0.41
GGGAAGCAAUAUUACGAACU	-2.22 ± 0.26	1.13 ± 0.33
GGGAAGCAAUAUUACGAGUC	-2.56 ± 0.17	-1.36 ± 0.16
GGGAAGCAAUAUUACGAUAU	-0.722 ± 0.15	-0.709 ± 0.23
GGGAAGCAAUAUUACGAUCC	-2.12 ± 0.22	-1.11 ± 0.35
GGGAAGCAAUAUUACGAUUC	-0.445 ± 0.14	-0.851 ± 0.16
GGGAAGCAAUAUUACGCAAC	-3.36 ± 0.17	-1.03 ± 0.18

Sequence	self-splicing fitness (ln) (30 °C)	self-splicing fitness (ln) (37 °C)
GGGAAGCAAUAUUACGCAUA	-2.35 ± 0.18	-1.25 ± 0.14
GGGAAGCAAUAUUACGCCGA	-1.78 ± 0.17	-0.238 ± 0.12
GGGAAGCAAUAUUACGCUAC	-2.26 ± 0.3	-1.84 ± 0.46
GGGAAGCAAUAUUACGCUGU	-2.38 ± 0.14	-1.45 ± 0.16
GGGAAGCAAUAUUACGGAAA	-1.4 ± 0.32	-1.41 ± 0.36
GGGAAGCAAUAUUACGGGGU	–	-2.7 ± 0.34
GGGAAGCAAUAUUACGGGUC	-2.67 ± 0.3	-2.08 ± 0.33
GGGAAGCAAUAUUACGGUGG	-3.18 ± 0.24	-2 ± 0.24
GGGAAGCAAUAUUACGUCUA	0.132 ± 0.17	-0.25 ± 0.18
GGGAAGCAAUAUUACGUCUU	-0.577 ± 0.09	-0.159 ± 0.13
GGGAAGCAAUAUUACGUGGC	-2.16 ± 0.36	-2.73 ± 0.31
GGGCAGCAAUAUUACGAAAU	-1.42 ± 0.25	-1.24 ± 0.22
GGGCAGCAAUAUUACGAAGC	-1.64 ± 0.077	-0.939 ± 0.09
GGGCAGCAAUAUUACGAAUA	–	0.108 ± 0.17
GGGCAGCAAUAUUACGACCG	-0.512 ± 0.14	0.369 ± 0.17
GGGCAGCAAUAUUACGACGA	-0.804 ± 0.11	-0.442 ± 0.12
GGGCAGCAAUAUUACGACGC	0.36 ± 0.13	-0.0449 ± 0.18
GGGCAGCAAUAUUACGAGGC	-2.26 ± 0.29	-2.9 ± 0.37
GGGCAGCAAUAUUACGAUAA	-2.67 ± 0.21	-1.75 ± 0.18
GGGCAGCAAUAUUACGAUCC	-1.89 ± 0.42	-0.374 ± 0.37
GGGCAGCAAUAUUACGCAGA	-1.43 ± 0.095	-0.514 ± 0.1
GGGCAGCAAUAUUACGCAUG	-1.36 ± 0.1	-0.482 ± 0.12
GGGCAGCAAUAUUACGCCUU	-3.55 ± 0.29	-2.13 ± 0.22
GGGCAGCAAUAUUACGCGGU	-3.4 ± 0.19	-1.77 ± 0.27
GGGCAGCAAUAUUACGCUCU	-3.55 ± 0.44	–
